In IntAct's records for PubMed 18532879:

B1: Nuclear polyadenylated RNA-binding protein NAB2 (Saccharomyces cerevisiae), P32505 (parent)
chain: MSQEQYTENLKVIVAEKLAGIPNFNEDIKYVAEYIVLLIVNGGTVESVVDELASLFDSVSRDTLANVVQTAFFALEALQQGESAENIVSKIRMMNAQSLGQSDIAQQQQQQQQQQQPDIAQQQPQQQPQQQPQQQPQQQPQQQPQQQPQQQPQQQPQLQPLQPQLGTQNAMQTDAPATPSPISAFSGVVNAAAPPQFAPVDNSQRFTQRGGGAVGKNRRGGRGGNRGGRNNNSTRFNPLAKALGMAGESNMNFTPTKKEGRCRLFPHCPLGRSCPHAHPTKVCNEYPNCPKPPGTCEFLHPNEDEELMKEMERTREEFQKRKADLLAAKRKPVQTGIVLCKFGALCSNPSCPFGHPTPANEDAKVIDLMWCDKNLTCDNPECRKAHSSLSKIKEVKPISQKKAAPPPVEKSLEQCKFGTHCTNKRCKYRHARSHIMCREGANCTRIDCLFGHPINEDCRFGVNCKNIYCLFRHPPGRVLPEKKGAAPNSNVPTNERPFALPENAIIENAPPQTSFTHQEQDTEMN
partner: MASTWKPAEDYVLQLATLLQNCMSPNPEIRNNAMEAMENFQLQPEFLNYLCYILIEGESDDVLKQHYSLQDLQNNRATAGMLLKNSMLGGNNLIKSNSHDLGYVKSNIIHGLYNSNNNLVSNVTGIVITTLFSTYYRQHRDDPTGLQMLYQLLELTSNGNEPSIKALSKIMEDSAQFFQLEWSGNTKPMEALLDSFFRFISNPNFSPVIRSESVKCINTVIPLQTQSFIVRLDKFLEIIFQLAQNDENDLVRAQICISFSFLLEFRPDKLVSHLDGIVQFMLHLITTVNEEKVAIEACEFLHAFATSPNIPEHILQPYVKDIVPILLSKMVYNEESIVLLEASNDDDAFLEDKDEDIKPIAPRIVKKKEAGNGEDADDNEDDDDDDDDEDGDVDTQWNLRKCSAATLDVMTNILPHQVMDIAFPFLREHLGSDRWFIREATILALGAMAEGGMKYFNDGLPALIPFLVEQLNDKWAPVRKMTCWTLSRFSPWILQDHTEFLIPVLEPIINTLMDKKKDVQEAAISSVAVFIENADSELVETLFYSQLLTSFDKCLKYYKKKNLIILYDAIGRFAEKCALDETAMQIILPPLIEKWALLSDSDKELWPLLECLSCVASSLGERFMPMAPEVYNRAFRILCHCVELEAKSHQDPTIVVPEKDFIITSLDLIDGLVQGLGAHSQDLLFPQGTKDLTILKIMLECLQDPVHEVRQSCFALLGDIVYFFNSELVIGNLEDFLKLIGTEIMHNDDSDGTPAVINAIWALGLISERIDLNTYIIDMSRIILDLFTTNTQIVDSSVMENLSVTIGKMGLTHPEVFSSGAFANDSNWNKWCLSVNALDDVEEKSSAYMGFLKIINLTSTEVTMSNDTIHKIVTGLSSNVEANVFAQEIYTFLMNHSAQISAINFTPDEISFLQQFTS

Variants of: B1
Conditions: with imb2_yeast KAP104, P38217

| Variant | effect of a mutation on the interaction |
| --- | --- |
| MSQEQYTENLKVIVAEKLAGIPNFNEDIKYVAEYIVLLIVNGGTVESVVDELASLFDSVSRDTLANVVQTAFFALEALQQGESAENIVSKIRMMNAQSLGQSDIAQQQQQQQQQQQPDIAQQQPQQQPQQQPQQQPQQQPQQQPQQQPQQQPQQQPQLQPLQPQLGTQNAMQTDAPATPSPISAFSGVVNAAAPPQFAPVDNSQRFTQRGGGAVGKNRRGGRGGNRGGRNNNSTAFNPLAKALGMAGESNMNFTPTKKEGRCRLFPHCPLGRSCPHAHPTKVCNEYPNCPKPPGTCEFLHPNEDEELMKEMERTREEFQKRKADLLAAKRKPVQTGIVLCKFGALCSNPSCPFGHPTPANEDAKVIDLMWCDKNLTCDNPECRKAHSSLSKIKEVKPISQKKAAPPPVEKSLEQCKFGTHCTNKRCKYRHARSHIMCREGANCTRIDCLFGHPINEDCRFGVNCKNIYCLFRHPPGRVLPEKKGAAPNSNVPTNERPFALPENAIIENAPPQTSFTHQEQDTEMN [R235A] | disrupting interaction |
| MSQEQYTENLKVIVAEKLAGIPNFNEDIKYVAEYIVLLIVNGGTVESVVDELASLFDSVSRDTLANVVQTAFFALEALQQGESAENIVSKIRMMNAQSLGQSDIAQQQQQQQQQQQPDIAQQQPQQQPQQQPQQQPQQQPQQQPQQQPQQQPQQQPQLQPLQPQLGTQNAMQTDAPATPSPISAFSGVVNAAAPPQFAPVDNSQRFTQRGGGAVGKNRRGGRGGNRGGRNNNSTAFNAAAKALGMAGESNMNFTPTKKEGRCRLFPHCPLGRSCPHAHPTKVCNEYPNCPKPPGTCEFLHPNEDEELMKEMERTREEFQKRKADLLAAKRKPVQTGIVLCKFGALCSNPSCPFGHPTPANEDAKVIDLMWCDKNLTCDNPECRKAHSSLSKIKEVKPISQKKAAPPPVEKSLEQCKFGTHCTNKRCKYRHARSHIMCREGANCTRIDCLFGHPINEDCRFGVNCKNIYCLFRHPPGRVLPEKKGAAPNSNVPTNERPFALPENAIIENAPPQTSFTHQEQDTEMN [R235A;P238A;L239A] | disrupting interaction |
| MSQEQYTENLKVIVAEKLAGIPNFNEDIKYVAEYIVLLIVNGGTVESVVDELASLFDSVSRDTLANVVQTAFFALEALQQGESAENIVSKIRMMNAQSLGQSDIAQQQQQQQQQQQPDIAQQQPQQQPQQQPQQQPQQQPQQQPQQQPQQQPQQQPQLQPLQPQLGTQNAMQTDAPATPSPISAFSGVVNAAAPPQFAPVDNSQRFTQRGGGAVGKNRRGGRGGNRGGRNNNSTRANPLAKALGMAGESNMNFTPTKKEGRCRLFPHCPLGRSCPHAHPTKVCNEYPNCPKPPGTCEFLHPNEDEELMKEMERTREEFQKRKADLLAAKRKPVQTGIVLCKFGALCSNPSCPFGHPTPANEDAKVIDLMWCDKNLTCDNPECRKAHSSLSKIKEVKPISQKKAAPPPVEKSLEQCKFGTHCTNKRCKYRHARSHIMCREGANCTRIDCLFGHPINEDCRFGVNCKNIYCLFRHPPGRVLPEKKGAAPNSNVPTNERPFALPENAIIENAPPQTSFTHQEQDTEMN [F236A] | disrupting interaction |

Next, values leading:

| effect of a mutation on the interaction | Variant |
| --- | --- |
| disrupting interaction | MSQEQYTENLKVIVAEKLAGIPNFNEDIKYVAEYIVLLIVNGGTVESVVDELASLFDSVSRDTLANVVQTAFFALEALQQGESAENIVSKIRMMNAQSLGQSDIAQQQQQQQQQQQPDIAQQQPQQQPQQQPQQQPQQQPQQQPQQQPQQQPQQQPQLQPLQPQLGTQNAMQTDAPATPSPISAFSGVVNAAAPPQFAPVDNSQRFTQRGGGAVGKNRRGGAGGNRGGRNNNSTRFNAAAKALGMAGESNMNFTPTKKEGRCRLFPHCPLGRSCPHAHPTKVCNEYPNCPKPPGTCEFLHPNEDEELMKEMERTREEFQKRKADLLAAKRKPVQTGIVLCKFGALCSNPSCPFGHPTPANEDAKVIDLMWCDKNLTCDNPECRKAHSSLSKIKEVKPISQKKAAPPPVEKSLEQCKFGTHCTNKRCKYRHARSHIMCREGANCTRIDCLFGHPINEDCRFGVNCKNIYCLFRHPPGRVLPEKKGAAPNSNVPTNERPFALPENAIIENAPPQTSFTHQEQDTEMN [R222A;P238A;L239A] |
| disrupting interaction strength | MSQEQYTENLKVIVAEKLAGIPNFNEDIKYVAEYIVLLIVNGGTVESVVDELASLFDSVSRDTLANVVQTAFFALEALQQGESAENIVSKIRMMNAQSLGQSDIAQQQQQQQQQQQPDIAQQQPQQQPQQQPQQQPQQQPQQQPQQQPQQQPQQQPQLQPLQPQLGTQNAMQTDAPATPSPISAFSGVVNAAAPPQFAPVDNSQRFTQRGGGAVGKNAAGGAGGNAGGANNNSTRFNPLAKALGMAGESNMNFTPTKKEGRCRLFPHCPLGRSCPHAHPTKVCNEYPNCPKPPGTCEFLHPNEDEELMKEMERTREEFQKRKADLLAAKRKPVQTGIVLCKFGALCSNPSCPFGHPTPANEDAKVIDLMWCDKNLTCDNPECRKAHSSLSKIKEVKPISQKKAAPPPVEKSLEQCKFGTHCTNKRCKYRHARSHIMCREGANCTRIDCLFGHPINEDCRFGVNCKNIYCLFRHPPGRVLPEKKGAAPNSNVPTNERPFALPENAIIENAPPQTSFTHQEQDTEMN [R218A;R219A;R222A;R226A;R229A] |
